From patent US20220009996A1 (NORTHWESTERN UNIVERSITY, published 2022)

T1: Recombinant Human VCAM-1/CD106 Fc chimera protein (R&D Systems) (human, UniProt P19320 25-698)
T1 construct: Bought from R&D Systems; also called VCAM-1 protein; not shown: Fc part (and any linker or His tag) of the bought chimera is not described
T1 sequence (looked up): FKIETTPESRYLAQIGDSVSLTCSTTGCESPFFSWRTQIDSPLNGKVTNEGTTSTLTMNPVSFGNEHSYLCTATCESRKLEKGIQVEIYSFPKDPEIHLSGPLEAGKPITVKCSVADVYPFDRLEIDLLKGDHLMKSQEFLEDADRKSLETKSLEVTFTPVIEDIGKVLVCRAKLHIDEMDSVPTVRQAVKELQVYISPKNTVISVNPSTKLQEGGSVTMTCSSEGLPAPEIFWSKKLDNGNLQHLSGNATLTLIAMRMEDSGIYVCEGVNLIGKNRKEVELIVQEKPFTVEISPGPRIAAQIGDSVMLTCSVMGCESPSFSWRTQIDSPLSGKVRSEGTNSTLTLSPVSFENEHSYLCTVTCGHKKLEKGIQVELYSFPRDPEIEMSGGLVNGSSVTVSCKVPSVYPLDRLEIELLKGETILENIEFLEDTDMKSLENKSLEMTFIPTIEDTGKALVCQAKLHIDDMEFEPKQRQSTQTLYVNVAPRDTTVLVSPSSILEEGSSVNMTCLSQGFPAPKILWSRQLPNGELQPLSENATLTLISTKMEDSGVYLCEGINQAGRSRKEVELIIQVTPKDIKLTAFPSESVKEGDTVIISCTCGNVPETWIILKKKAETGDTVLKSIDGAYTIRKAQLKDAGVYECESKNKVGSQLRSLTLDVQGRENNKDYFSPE


Key:
[1] = target: T1, Recombinant Human VCAM-1/CD106 Fc …; assay: BLI (BLItz), VCAM-1 Fc chimera immobilized on Anti-Penta-HIS biosensor, serial dilutions of PA nanofibers
[2] = target: T1, Recombinant Human VCAM-1/CD106 Fc …; assay: bio-layer interferometry (BLItz): VCAM-1 Fc chimera immobilised on an Anti-Penta-HIS biosensor, PA nanofibers in DPBS as analyte, 300 s association and 300 s dissociation

Binder | Kd [1] | binding result [2]
VVVAAAEEEGSGVHPKQH (HELM PEPTIDE1{[CCCCCCCCCCCCCCCC(=O)[*:2]].V.V.V.A.A.A.E.E.E.G.S.G.V.H.P.K.Q.H.[am]}$$$$V2.0; SMILES CCCCCCCCCCCCCCCC(=O)N[C@H](C(=O)N[C@H](C(=O)N[C@H](C(=O)N[C@@H](C)C(=O)N[C@@H](C)C(=O)N[C@@H](C)C(=O)N[C@@H](CCC(=O)O)C(=O)N[C@@H](CCC(=O)O)C(=O)N[C@@H](CCC(=O)O)C(=O)NCC(=O)N[C@@H](CO)C(=O)NCC(=O)N[C@H](C(=O)N[C@@H](Cc1c[nH]cn1)C(=O)N1CCC[C@H]1C(=O)N[C@@H](CCCCN)C(=O)N[C@@H](CCC(N)=O)C(=O)N[C@@H](Cc1c[nH]cn1)C(N)=O)C(C)C)C(C)C)C(C)C)C(C)C, Peptide amphiphile, self-assembled into supramolecular nanofibers after annealing; tested as nanofibers, so the number of copies in one assembly is not defined; In the microfluidic assay it stood as a coating on lymphocytes; also called VCAMb PA; VCAM-1 targeting PA) [VCAM-1 binding PA (C16V3A3E3GSGVHPKQH) nanofibers] | 280 nM | –
VVVAAAEEE (HELM PEPTIDE1{[CCCCCCCCCCCCCCCC(=O)[*:2]].V.V.V.A.A.A.E.E.E.[am]}$$$$V2.0; SMILES CCCCCCCCCCCCCCCC(=O)N[C@H](C(=O)N[C@H](C(=O)N[C@H](C(=O)N[C@@H](C)C(=O)N[C@@H](C)C(=O)N[C@@H](C)C(=O)N[C@@H](CCC(=O)O)C(=O)N[C@@H](CCC(=O)O)C(=O)N[C@@H](CCC(=O)O)C(N)=O)C(C)C)C(C)C)C(C)C, Peptide amphiphile without targeting moiety, self-assembled into nanofibers; also called filler PA; non-bioactive backbone PA) [backbone PA (C16V3A3E3) nanofibers] | – | no binding (tested: 100 µM)
VVVAAAEEEGSGQHPHVK (HELM PEPTIDE1{[CCCCCCCCCCCCCCCC(=O)[*:2]].V.V.V.A.A.A.E.E.E.G.S.G.Q.H.P.H.V.K.[am]}$$$$V2.0; SMILES CCCCCCCCCCCCCCCC(=O)N[C@H](C(=O)N[C@H](C(=O)N[C@H](C(=O)N[C@@H](C)C(=O)N[C@@H](C)C(=O)N[C@@H](C)C(=O)N[C@@H](CCC(=O)O)C(=O)N[C@@H](CCC(=O)O)C(=O)N[C@@H](CCC(=O)O)C(=O)NCC(=O)N[C@@H](CO)C(=O)NCC(=O)N[C@@H](CCC(N)=O)C(=O)N[C@@H](Cc1c[nH]cn1)C(=O)N1CCC[C@H]1C(=O)N[C@@H](Cc1c[nH]cn1)C(=O)N[C@H](C(=O)N[C@@H](CCCCN)C(N)=O)C(C)C)C(C)C)C(C)C)C(C)C, formed relatively short, closely packed fibers; also called scrambled control PA) [VCAMb-scr PA (C16V3A3E3GSGQHPHVK) nanofibers] | – | no binding (tested: 100 µM)
